How the values were obtained:
[1] = biological target: wild-type apelin receptor tagged C-terminally with eGFP (human) (UniProt P35414); test: fluorescent ligand binding on cells (high content confocal imaging); CHO-K1 cells transiently transfected with receptor-eGFP; apelin647 300 nM or ELA647 1 µM in HBSS, 90 min, room temperature, washed and fixed; mean membrane fluorescence of eGFP-positive cells as % WT; non-specific binding with 10 µM [Pyr1]apelin-13
[2] = biological target: apelin receptor NxStaR (stabilised human apelin receptor) (human) (UniProt P35414); test: SPR; Biacore T200; receptor immobilised on NTA chip (Ni-NTA capture and amine coupling); 10 °C; 0.01 M HEPES pH 7.5, […] NaCl, 0.02% DDM, 5% DMSO; single-cycle, 6.25-100 nM for Apelin-13 and ΔC2; 1:1 model
[3] = biological target: apelin receptor NxStaR (stabilised human apelin receptor) (human) (UniProt P35414); test: SPR; Biacore 8K+; receptors immobilised on NTA chip (Ni-NTA capture and amine coupling); 10 °C; pH 6.0 buffer ([…] MES, […] NaCl, 0.02% DDM, 5% DMSO); single-cycle, four concentrations; 1:1 model
[4] = biological target: apelin receptor NxStaR (stabilised human apelin receptor) (human) (UniProt P35414); test: SPR; Biacore 8K+; receptors immobilised on NTA chip (Ni-NTA capture and amine coupling); 10 °C; pH 7.5 buffer (0.01 M HEPES, […] NaCl, 0.02% DDM, 5% DMSO); single-cycle, four concentrations; 1:1 model

wild-type apelin receptor tagged C-terminally with eGFP (human), sequence (P35414 whole entry): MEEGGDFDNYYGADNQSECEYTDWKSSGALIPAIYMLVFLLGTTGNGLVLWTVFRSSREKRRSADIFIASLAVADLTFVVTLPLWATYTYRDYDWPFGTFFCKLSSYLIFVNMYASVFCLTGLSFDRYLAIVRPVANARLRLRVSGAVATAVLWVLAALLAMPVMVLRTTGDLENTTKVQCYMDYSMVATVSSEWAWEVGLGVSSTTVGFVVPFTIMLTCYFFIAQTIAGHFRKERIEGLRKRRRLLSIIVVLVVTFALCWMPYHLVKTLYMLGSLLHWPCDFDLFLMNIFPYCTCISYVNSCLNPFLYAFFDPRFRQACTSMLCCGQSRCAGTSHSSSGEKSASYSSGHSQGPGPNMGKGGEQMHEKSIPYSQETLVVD

In the case of ELA647 fluorescently labelled peptide, the membrane ELA647 fluorescence (% WT) [1] is reported as 100 % WT.
“apelin-13 ΔC2 (C-terminally truncated apelin-13 ending with M11) (peptide)” showed a Kd [2] of 5.79 nM.
With “NXE'992, chimeric peptide (pyrazole-QRPRL[AIB]S[PipALA]VPFP)” the Kd [3] was 21 nM and the Kd [4] was 3.27 nM.
In the case of “apelin647 fluorescently labelled peptide”, the membrane apelin647 fluorescence (% WT) [1] is reported as 100 % WT.

— publication PMC11680790, “Structural and functional determination of peptide versus small molecule ligand binding at the apelin receptor” (Nature Communications, 2024)
